Residue numbers refer to the chain shown, from its start.
B1: 18B9His_MG (antibody, V domains shown)
VH: EVQLLESGGGLVQPGGSLRLSCAASGFTFSSYVMSWVRQAPGKGLEWVSSIYSDGSHTYYADSVKGRFTISRDNSKNTLYLQMNSLRAEDTAVYYCAKNLEHYSGSYYYTDPRYDYWGQGTLVTVSS
VL: SSELTQDPAVSVALGQTVRITCQGGSLGSSYVHWYQQKPGQAPVLVIYDGDSRPSGIPDRFSGSSSGNTASLTITGAQAEDEADYYCQSADSSGNAVFGGGTQLTVL
B2: 18E2_H S35H_MG (antibody, V domains shown)
VH: EVQLLESGGGLVQPGGSLRLSCAASGFTFSSYVMHWVRQAPGKGLEWVSSIYHDGSHTYYADFVKGRFTISRDNSKNTLYLQMNSLRAEDTAVYYCAKGTSYSGSYYYTDPFFGSWGQGTLVTVSS
VL: B1 VL with G25D, S26R, S30R, V32I, H33Y, G50D, S52R, A96P
notes: germlined clone
B3: 13E4_MG (antibody, V domains shown)
VH: B2 VH with H35S
VL: B1 VL with S30N, V32A, H33Y, G50D, S93N
notes: germlined clone; also called germlined 13E4
B4: 18E2His2_MG (antibody, V domains shown)
VH: B2 VH
VL: B1 VL with G25D, S26R, S30R, V32I, G50D, S52R, A96P
notes: also called 18E2VHS35HVLY34HMG
B5: 18E2_VL Y34H_MG (antibody, V domains shown)
VH: QLLESGGGLVQPGGSLRLSCAASGFTFSSYVMSWVRQAPGKGLEWVSSIYHDGSHTYYADFVKGRFTISRDNSKNTLYLQMNSLRAEDTAVYYCAKGTSYSGSYYYTDPFFGSWGQGTLVTVSS
VL: B1 VL with G25D, S26R, S30R, V32I, G50D, S52R, A96P
notes: germlined clone
B6: 13E4-hIgG1-WT (antibody, V domains shown)
VH: B2 VH with V2L, L5V, H35S, S75A, R87K, A88S, K98S, L121Q
VL: HSAVTQPSALSVTLGQTAKITCQGGSLGSNYAYWYQQKPGQAPVLVIYDDDSRPSGIPERFSGSSSGGTATLTISGAQAEDEGDYYCQSADSNGNAVFGGGTHLTVL
notes: also called clone 13E4
B7: 20D5 human IgG1 mAb (antibody, V domains shown)
VH: QLQLVESGGGLVQPGGSLRLSCAASGFAFSSYVMTWVRQAPGKGLEWVSSIYSDGSHTYYADSVKDRFTISRDNAKNTLFLQMNSLKSEDTAVYYCAKDAEYYSGSYYYTDTKYDYWGQGTQVTVSS
VL: B6 VL with H1S, V4L, N30S, Y33H, D49A, N93S
notes: also called clone 20D5
B8: 3D6 human IgG1 mAb (antibody, V domains shown)
VH: QVQLVESGGGLVQPGGSLRLSCAASGFTFSSYYMTWVRQAPGKGLEWVSSIYSDGSNTYYADSVKGRFTISRDNAKNTLHLQMNSLKSEDTAVYYCAKDLKARYSGSYHDEGYDYWGQGTQVTVSS
VL: B6 VL with H1Q, V4L, N30S, Y33H, T69R, N93S, A96P, H103K
notes: human IgG1 and human light chain constant domains; also called clone 3D6
B9: 18B9 human IgG1 mAb (antibody, V domains shown)
VH: B1 VH with E1Q, L5V, S75A, R87K, A88S, L122Q
VL: B6 VL with H1S, V4L, N30S, A32V, Y33H, D50G, G83D, N93S
notes: human IgG1 and human light chain constant domains; also called clone 18B9
B10: 16E4 human IgG1 mAb (antibody, V domains shown)
VH: B8 VH with Q1E, T35S, N57Y, T58A, H80Y, S107T
VL: B6 VL with H1S, V4L, T17S, S29A, N30T, T69R, D91Y
notes: also called clone 16E4
B11: 3A1 human IgG1 mAb (antibody, V domains shown)
VH: EVQVQESGGGLVQPGGSLRLSCAASGFTFDNYAMSWVRQAPGKGLEWVSAISWNGGSTYYAESMKGRFTISRDNAKNMLYLQMNSLKSEDTAVYYCAKDLLVAARGGMDYWGKGTLVTVSS
VL: SSALTQPSAVSVSLEQTARITCQGGTLGSYGAHWYQQKPGQAPVLLIYGDNSRPSGIPERFSGTRSGGTATLTISGAQAEDEADYYCQSFDYSGNAVFGGGTHLTVL
notes: human IgG1 and human light chain constant domains; also called clone 3A1
B12: 18E2 human IgG1 mAb (antibody, V domains shown)
VH: B2 VH with E1Q, V2L, L5V, H35S, S75A, R87K, A88S, K98S, L121Q
VL: NFMLTQPSALSVTLGQTARITCQGDRLGSRYIYWYQQKPPQAPVLVIHDDDRRPSGIPERFSGSSSGGTATLTISGAQAEDDGDYYCQSADSSGNPVFGGGTHLTVL
notes: also called clone 18E2
B13: VH18B9_S35H (antibody, V domains shown)
VH: B1 VH with E1Q, L5V, S35H, S75A, R87K, A88S, L122Q
VL: B6 VL with H1S, V4L, N30S, A32V, Y33H, D50G, G83D, N93S
B14: VL18E2_Y34H (antibody, V domains shown)
VH: B2 VH with E1Q, V2L, L5V, H35S, S75A, R87K, A88S, K98S, L121Q
VL: B12 VL with Y33H
B15: 18B9His-hIgG1-WT (antibody, V domains shown)
VH: B1 VH with E1Q, L5V, S75A, R87K, A88S, L122Q
VL: B6 VL with H1S, V4L, N30S, A32V, Y33H, Y48H, D50G, G83D, N93S
notes: also called VL18B9_Y49H; 18B9-His-WT
B16: 18B9His-hIgG1-ABDEG (antibody, V domains shown)
VH: B1 VH with E1Q, L5V, S75A, R87K, A88S, L122Q
VL: B6 VL with H1S, V4L, N30S, A32V, Y33H, Y48H, D50G, G83D, N93S
notes: also called 18B9His ABDEG; 18B9-hIgG1-ABDEG
B17: omalizumab variant Fab VH15 / VL3 (Fab, V domains shown)
VH: EVQLVESGGGLVQPGGSLRLSCAVSGYSITSGHRWEWIRQAPGKGLEWVASIHYDGSTNYNPSVKGRITISRDDSKNTFYLQMNSLRAEDTAVYYCARATHYFGHWHFAVWGQGTLVTVSS
VL: DIQLTQSPSSLSASVGDRVTITCRASQSVDYDGDSYMNWYQQKPGKAPKLLIEWGSYLRSGVPSRFSGSGSGTDFTLTISSLQPEDFATYYCQQNAEDPYTFGQGTKVEIK

Each binder was assayed against T1, human immunoglobulin E (hIgE) (human, UniProt P01854-1 1-428) (assay: competition ELISA, hIgE to coated hFcεRIα, pH 6).
T1 construct: also called human IgE; Native IgE (Abcam)
T1 sequence (P01854 whole entry): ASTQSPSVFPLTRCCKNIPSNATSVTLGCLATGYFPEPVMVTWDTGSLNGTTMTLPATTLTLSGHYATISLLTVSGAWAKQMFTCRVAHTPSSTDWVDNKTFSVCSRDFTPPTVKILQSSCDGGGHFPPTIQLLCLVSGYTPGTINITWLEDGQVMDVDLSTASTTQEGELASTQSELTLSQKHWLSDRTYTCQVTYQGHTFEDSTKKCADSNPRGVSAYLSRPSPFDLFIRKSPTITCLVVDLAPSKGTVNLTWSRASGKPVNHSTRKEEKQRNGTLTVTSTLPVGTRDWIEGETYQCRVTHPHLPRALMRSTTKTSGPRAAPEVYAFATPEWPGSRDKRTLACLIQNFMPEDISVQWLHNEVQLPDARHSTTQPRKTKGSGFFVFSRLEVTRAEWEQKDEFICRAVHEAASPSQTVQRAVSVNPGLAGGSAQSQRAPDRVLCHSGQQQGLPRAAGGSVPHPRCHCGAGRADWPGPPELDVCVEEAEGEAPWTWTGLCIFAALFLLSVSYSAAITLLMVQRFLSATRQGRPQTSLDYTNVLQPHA
Experimental: (§1) The IC50 values of each antibody were calculated with a non-linear regression (log(agonist) vs. response Variable slope (four parameters)).

Binder | IC50 [µg/mL]
B1 | 1.74
B2 | 0.671
B3 | 0.0633
B4 | ~11300
B5 | 61.4

Each binder was assayed against T2, recombinant Motavizumab human IgE (rMota-hIgE) (human, UniProt P01854 1-428) (assay: ELISA: rMota-hIgE captured on coated RSV-F, washes at pH 7.4, anti-human Fc-HRP; EC50 unit inferred, x axis in pM).
T2 construct: also called Recombinant IgE (argenx)
T2 sequence (P01854 other isoform, or with tags, fused parts or gaps limits assumed, form in doubt): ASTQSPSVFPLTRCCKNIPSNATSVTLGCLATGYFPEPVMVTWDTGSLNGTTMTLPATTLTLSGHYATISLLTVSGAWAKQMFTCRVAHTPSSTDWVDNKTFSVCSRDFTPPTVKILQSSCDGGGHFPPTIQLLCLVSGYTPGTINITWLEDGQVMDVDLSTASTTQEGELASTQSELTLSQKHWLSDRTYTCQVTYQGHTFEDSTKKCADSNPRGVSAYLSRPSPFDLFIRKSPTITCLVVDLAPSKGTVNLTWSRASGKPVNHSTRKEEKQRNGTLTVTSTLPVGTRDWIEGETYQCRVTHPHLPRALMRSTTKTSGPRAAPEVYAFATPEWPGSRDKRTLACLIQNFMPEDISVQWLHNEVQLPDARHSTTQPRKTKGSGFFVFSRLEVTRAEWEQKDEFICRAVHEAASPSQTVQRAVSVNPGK
Experimental: (§2) Briefly a Maxisorp plate was coated with recombinant human respiratory syncytial virus protein F (RSV-F) (0.5 μg/mL), then blocked with PBS with 3% BSA and 0.05% Tween. […] After several washing steps at pH 7.4 or pH 5.5, detection of the bound mAbs was carried out with an anti-human Fc-HRP antibody.

Binder | EC50 [nM]
B6 | 0.0913

The binders below were run against T1, human immunoglobulin E (hIgE) (assay: competition ELISA, hIgE to coated hFcεRIα, pH 7.4).
Experimental: as §1

Binder | IC50 [µg/mL]
B1 | 0.176
B2 | 0.0657
B3 | 0.0242
B4 | 3.91
B5 | 0.706

The binders below were run against T1, human immunoglobulin E (hIgE) (assay: SPR competition, hIgE + mAb over hFcεRIα chip, pH 6 (text: pH 5.5)).
Experimental: (§3) For this purpose, a competition approach was set-up. […] The assay was performed in HBS-EP pH7.4 or HBS-EP pH 5.5. Raw data were analyzed via BIA evaluation software with a blank subtraction (2-1). […] The IC50 values of each compound were calculated with a non-linear regression (log(agonist) vs. response Variable slope (four parameters)).

Binder | IC50 [nM]
B7 | 3.83
B8 | 8.04
B9 | 5.65
B10 | 5.17
B11 | 6.91

These binders were tested against T1, human immunoglobulin E (hIgE) (assay: competition ELISA).
Experimental: (§4) The IC50 values of each compound were calculated with a non-linear regression (log(agonist) vs. response Variable slope (four parameters)).

Binder | Ratio pH 6/7.4 (IC50)
B7 | 1.1
B8 | 2.8
B9 | 2.7
B12 | 2.4
B10 | 2.7
B11 | 1

What follows are binders tested against T1, human immunoglobulin E (hIgE) (assay: SPR competition, hIgE + mAb over hFcεRIα chip, pH 7.4).
Experimental: as §3

Binder | IC50 [nM]
B7 | 3.38
B8 | 4.37
B9 | 4.09
B10 | 4.25
B11 | 4.76

These binders were tested against T1, human immunoglobulin E (hIgE) (assay: SPR competition, hIgE over hFcεRIα chip, pH 7.4).
Experimental: (§5) The assay was performed in HBS-EP pH7.4 or HBS-EP pH 5.5. Raw data were analyzed via BIA evaluation software with a blank subtraction (2-1). […] The IC50 values of each compound were calculated with a non-linear regression (log(agonist) vs. response Variable slope (four parameters)).
(§6) Raw data were analyzed via BIA evaluation software with a blank subtraction (2-1). […] The IC50 values of each compound, calculated with a non-linear regression (log(agonist) vs. response Variable slope (four parameters)).

Binder | IC50 [µg/mL]
B13 | 21.7
B9 | 0.662
B12 | 0.628
B14 | 1.1

The binders below were run against T1, human immunoglobulin E (hIgE) (assay: SPR competition, hIgE over hFcεRIα chip, pH 5.5).
Experimental: as §5, §6

Binder | IC50 [µg/mL]
B13 | 22.3
B9 | 1.07
B12 | 0.484
B14 | 5.18

The binders below were run against T2, recombinant Motavizumab human IgE … (assay: ELISA: rMota-hIgE captured on coated RSV-F, washes at pH 5.5, anti-human Fc-HRP; EC50 unit inferred, x axis in pM).
Experimental: as §2

Binder | EC50 [nM]
B6 | 0.0938

Each binder was assayed against T1, human immunoglobulin E (hIgE) (assay: SPR competition).
Experimental: as §3

Binder | Ratio pH 6/7.4 (IC50)
B7 | 1.1
B8 | 1.8
B9 | 1.4
B10 | 1.2
B11 | 1.5

Each binder was assayed against T1, human immunoglobulin E (hIgE) (assay: competition ELISA, biotin-hIgE to coated hFcεRIα, pH 7.4).
Experimental: as §4

Binder | IC50 [nM]
B7 | 35.2
B8 | 75.4
B9 | 41.9
B12 | 36.9
B10 | 58
B11 | 152

Molecular target: T2, recombinant Motavizumab human IgE …
Assay: ELISA: rMota-hIgE captured on coated RSV-F, washes at pH 7.4, anti-human Fc-HRP; EC50 unit inferred, x axis in pM
Remark: another data set of the same source
Experimental: as §2

Binder | EC50 [nM]
B15 | 0.142
B16 | 0.119

The binders below were run against T2, recombinant Motavizumab human IgE … (assay: SPR, Fab periplasmic extract, pH 7.4).

Binder | Off-rate improvement ratio (against VHWT VLWT) | R0 (RU) | koff [s⁻¹]
B17 | 18 | 285 | 0.000269

Each binder was assayed against T1, human immunoglobulin E (hIgE) (assay: SPR, Fab periplasmic extract, pH 7.4).

Binder | Off-rate improvement ratio (against VHWT VLWT) | R0 (RU) | koff [s⁻¹]
B17 | 14.8 | 235 | 0.00035

Molecular target: T2, recombinant Motavizumab human IgE …
Assay: ELISA: rMota-hIgE captured on coated RSV-F, washes at pH 5.5, anti-human Fc-HRP; EC50 unit inferred, x axis in pM
Remark: another data set of the same source
Experimental: as §2

Binder | EC50 [nM]
B15 | 0.115
B16 | 0.149

Each binder was assayed against T1, human immunoglobulin E (hIgE) (assay: competition ELISA, biotin-hIgE to coated hFcεRIα, pH 6).
Experimental: as §4

Binder | IC50 [nM]
B7 | 39.1
B8 | 214
B9 | 112
B12 | 87.8
B10 | 156
B11 | 148

Reference: patent US20220177604A1 (ARGENX, published 2022)
